Where no end group is shown, it is not given here. fluorescein = fluorescein label covalently attached to the C-terminal cysteine
Molecular target: T1, cpSRP43-FL (Arabidopsis thaliana, UniProt O22265 57-373)
T1 sequence (looked up): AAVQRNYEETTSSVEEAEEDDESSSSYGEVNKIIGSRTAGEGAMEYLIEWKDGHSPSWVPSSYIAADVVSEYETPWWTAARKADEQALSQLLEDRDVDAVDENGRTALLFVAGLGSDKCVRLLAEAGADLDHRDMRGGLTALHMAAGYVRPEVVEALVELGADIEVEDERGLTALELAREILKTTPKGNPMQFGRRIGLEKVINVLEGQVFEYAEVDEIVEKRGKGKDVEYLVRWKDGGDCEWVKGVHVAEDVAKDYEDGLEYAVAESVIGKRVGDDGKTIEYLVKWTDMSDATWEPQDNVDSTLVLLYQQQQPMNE
Assay: fluorescence polarisation

- binding result: binds
Binder: QKQKAPPGTARRKRKAC(fluorescein) [fluorescein-labeled cpSRP54M peptide]

— article PMC8879858 (Nature plants, 2021)
